The target of series [1] is complement C1q (purified) (UniProt P02745 23-245; P02746 28-253; P02747 29-245). The experiment in a line: ELISA.
Series [2] deals with the molecule itself. Nature of the series: negative staining electron microscopy.

As a reminder, the Kd is a measure of binding affinity in units of concentration. A higher Kd goes with lower affinity. A word on the stoichiometry N: it is a count of units in the complex or per binding partner.

Chain of complement C1q (purified) (P02745 23-245, chain 1 of 3): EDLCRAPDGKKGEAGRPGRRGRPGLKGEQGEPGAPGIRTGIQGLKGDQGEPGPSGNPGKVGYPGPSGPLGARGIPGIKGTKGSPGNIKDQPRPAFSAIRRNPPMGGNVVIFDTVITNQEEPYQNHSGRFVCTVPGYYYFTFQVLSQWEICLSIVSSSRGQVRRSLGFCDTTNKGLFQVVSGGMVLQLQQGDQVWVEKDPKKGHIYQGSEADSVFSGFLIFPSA
Chain of complement C1q (purified) (P02746 28-253, chain 2 of 3): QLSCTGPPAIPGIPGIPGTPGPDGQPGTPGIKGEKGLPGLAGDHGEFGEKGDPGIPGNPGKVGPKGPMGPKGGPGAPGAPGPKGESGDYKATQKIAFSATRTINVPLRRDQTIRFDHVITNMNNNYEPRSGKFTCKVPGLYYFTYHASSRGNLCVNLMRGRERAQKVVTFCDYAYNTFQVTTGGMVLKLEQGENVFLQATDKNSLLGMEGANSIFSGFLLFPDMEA
Chain of complement C1q (purified) (P02747 29-245, chain 3 of 3): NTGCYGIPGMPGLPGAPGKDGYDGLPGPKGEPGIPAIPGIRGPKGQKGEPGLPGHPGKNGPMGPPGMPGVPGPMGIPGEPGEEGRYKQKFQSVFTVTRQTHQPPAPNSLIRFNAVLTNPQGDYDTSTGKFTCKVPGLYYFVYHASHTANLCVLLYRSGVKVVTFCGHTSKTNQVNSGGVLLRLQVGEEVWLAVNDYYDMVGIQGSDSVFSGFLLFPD

B1: Nptxr/Nptx2 coexpressed on a stable doxycycline-inducible CHO cell line (complex)
chain 1: MKFLAVLLAAGMLAFLGAVICIIASVPLAASPARALPGGADNASVASGAAASPGPQRSLSALHGAGGSAGPPALPGAPAASAHPLPPGPLFSRFLCTPLAAACPSGAQQGDAAGAAPGEREELLLLQSTAEQLRQTALQQEARIRADQDTIRELTGKLGRCESGLPRGLQGAGPRRDTMADGPWDSPALILELEDAVRALRDRIDRLEQELPARVNLSAAPAPVSAVPTGLHSKMDQLEGQLLAQVLALEKERVALSHSSRRQRQEVEKELDVLQGRVAELEHGSSAYSPPDAFKISIPIRNNYMYARVRKALPELYAFTACMWLRSRSSGTGQGTPFSYSVPGQANEIVLLEAGHEPMELLINDKVAQLPLSLKDNGWHHICIAWTTRDGLWSAYQDGELQGSGENLAAWHPIKPHGILILGQEQDTLGGRFDATQAFVGDIAQFNLWDHALTPAQVLGIANCTAPLLGNVLPWEDKLVEAFGGATKAAFDVCKGRAKA
chain 2: GAQDSPAPGSRFVCTALPPEAVHAGCPLPAMPMQGGAQSPEEELRAAVLQLRETVVQQKETLGAQREAIRELTGKLARCEGLAGGKARGAGATGKDTMGDLPRDPGHVVEQLSRSLQTLKDRLESLEHQLRANVSNAGLPGDFREVLQQRLGELERQLLRKVAELEDEKSLLHNETSAHRQKTESTLNALLQRVTELERGNSAFKSPDAFKVSLPLRTNYLYGKIKKTLPELYAFTICLWLRSSASPGIGTPFSYAVPGQANEIVLIEWGNNPIELLINDKVAQLPLFVSDGKWHHICVTWTTRDGMWEAFQDGEKLGTGENLAPWHPIKPGGVLILGQEQDTVGGRFDATQAFVGELSQFNIWDRVLRAQEIVNIANCSTNMPGNIIPWVDNNVDVFGGASKWPVETCEERLLDL
For B1, the Kd in series [1] was around 2 nM.

B2: neuronal pentraxin 2 (purified, recombinant) (natural protein, UniProt P47972 16-431, looked up)
chain: B1 chain 2
With B2, in series [2], the “stoichiometry N” value was determined as 6.

The values above are taken from publication PMC10467038 (Science translational medicine, 2023).
